Results from PMC7155755, “Binding of the Human 14-3-3 Isoforms to Distinct Sites in the Leucine-Rich Repeat Kinase 2” (Frontiers in Neuroscience, 2020).
“Also recorded” adds a separate entry of the source. Each block holds one molecule with its values, some of them ahead of it. Square brackets hold non-standard residues; d marks the D form. Ends that are not written are not given here. fluorescein = N-terminal fluorescein label; pS = N[C@@H](COP(=O)(O)O)C(=O)O

What was measured:
[1] = system: all seven human 14-3-3 isoforms; experiment: Fluorescence polarization (FP) direct binding assay, statements over all isoforms; conditions: FP direct binding; all seven isoforms; fluorescein-labeled peptide 1 nM; FP buffer pH 7
Procedure: (§1) Human MBP-tagged 14-3-3 isoforms were expressed from pMAL2CX plasmids [[Kilisch et al. (2016)], [Yuan et al. (2003)]] in E. coli BL21DE3 cells. After induction with […] isopropyl-β-D-thiogalactoside, the protein was expressed for 4 h at room temperature. Cells were lysed in MBP-lysis buffer [50 mM Tris–HCl pH 7.5, 150 mM NaCl, 5 mM MgCl2, 1 mM PMSF, 1× cOmplete Protease Inhibitor EDTA-free (Roche)] using a French Pressure cell (FRENCH Press, Thermo, United States). Following centrifugation at 42,000 × g and 4°C for 30 min, the supernatant was transferred to a Maltose-agarose column (1.5 ml bed volume; New England Biolabs GmbH, Germany). Captured proteins were washed six times with 10 ml wash buffer (50 mM Tris–HCl pH 7.5, 150 mM NaCl, 5 mM MgCl2) prior to elution using wash buffer including 15 mM D-maltose. To remove the MBP tag, fusion proteins were incubated with Factor Xa (New England Biolabs GmbH, Germany), at a final concentration of 0.4 μg per 1 mg fusion protein for 24 h at RT following another 72 h at 4°C. Anion exchange chromatography was finally applied to separate residual MBP using a buffer gradient from 20 mM Tris pH 8 to 20 mM Tris pH 8 with 1 M NaCl. For this a RESOURCE Q column (GE Healthcare, United Kingdom) was utilized, employing an ÄKTApurifier (GE Healthcare, United Kingdom) or an NGC Quest Chromatography System (Bio-Rad Laboratories GmbH, Germany).
(§2) FP was used to determine binding affinities of different phosphorylated and non-phosphorylated peptides derived from LRRK2 sequences (Peps4LS GmbH, Germany) toward human 14-3-3 isoforms. Direct binding assays were performed and evaluated as previously described ([Muda et al., 2014]; [Manschwetus et al., 2019]). Briefly, both dilution series of 14-3-3 isoforms ranging from final concentrations of at least 5 μM down to picomolar concentrations and dilutions of the respective fluorescein-labeled peptide (final conc. 1 nM) were prepared in FP buffer (20 mM MOPS pH 7, 150 mM NaCl, 0.005% CHAPS). Subsequently, samples were mixed in 384-well microtiter plates as duplicates (BRAND plates, pureGrade, black, BRAND GmbH & Co. KG, Germany) in a 1:1 ratio and measured using a CLARIOstar plate reader (BMG LABTECH, Germany). Two protein preparations were utilized for at least two independent replications for all measurements while high affinity binding peptides were particularly measured with a minimum of three independent replications for statistical evaluation. Data was analyzed with GraphPad Prism 6.0 (GraphPad Software, San Diego, CA, United States) by plotting obtained FP signals (mPol) against the logarithmic 14-3-3 protein concentrations. Data points represent means ± standard error of mean (SEM) of duplicates. “Ctrl.” indicates the FP signal of fluorescein-labeled peptides without 14-3-3 protein. Sigmoidal dose-response fitting was performed to define KD-values.

[2] = target: T1, human 14-3-3γ (Homo sapiens, UniProt P61981); experiment: Fluorescence polarization (FP) direct binding assay; conditions: dilution series of 14-3-3γ (at least 5 μM down to pM), fluorescein-labeled peptide 1 nM, FP buffer pH 7
T1 construct: MBP (cleaved yes); made in house; host or cells: E. coli BL21DE3
T1 sequence (P61981 1-247): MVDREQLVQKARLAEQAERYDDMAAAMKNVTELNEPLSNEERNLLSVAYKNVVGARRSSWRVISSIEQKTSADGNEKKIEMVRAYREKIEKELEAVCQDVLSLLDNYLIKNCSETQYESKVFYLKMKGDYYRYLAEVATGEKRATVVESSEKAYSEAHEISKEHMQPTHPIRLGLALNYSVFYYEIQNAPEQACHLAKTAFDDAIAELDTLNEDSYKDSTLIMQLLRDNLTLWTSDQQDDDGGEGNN
Procedure: as §1, §2

[3] = target: T2, human 14-3-3 isoform σ (Homo sapiens, UniProt P31947); experiment: as above; conditions: fluorescein-labeled peptide 1 nM
T2 construct: MBP (cleaved yes); made in house; host or cells: E. coli BL21DE3
T2 sequence (P31947 1-248): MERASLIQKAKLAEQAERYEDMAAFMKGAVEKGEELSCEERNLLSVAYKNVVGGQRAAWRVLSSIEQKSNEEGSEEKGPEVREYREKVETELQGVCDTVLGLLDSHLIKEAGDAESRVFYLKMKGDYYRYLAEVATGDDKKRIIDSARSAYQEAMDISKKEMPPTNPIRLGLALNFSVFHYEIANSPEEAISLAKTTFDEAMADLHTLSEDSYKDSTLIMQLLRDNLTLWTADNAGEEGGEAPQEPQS
Procedure: as §1, §2

[4] = target: T3, human 14-3-3 isoform η (Homo sapiens, UniProt Q04917); experiment: as above; conditions: fluorescein-labeled peptide 1 nM
T3 construct: MBP (cleaved yes); made in house; host or cells: E. coli BL21DE3
Procedure: as §1, §2

[5] = target: T4, human 14-3-3 isoform ϵ (Homo sapiens, UniProt P62258); experiment: as above; conditions: fluorescein-labeled peptide 1 nM
T4 construct: MBP (cleaved yes); made in house; host or cells: E. coli BL21DE3
T4 sequence (P62258 1-255): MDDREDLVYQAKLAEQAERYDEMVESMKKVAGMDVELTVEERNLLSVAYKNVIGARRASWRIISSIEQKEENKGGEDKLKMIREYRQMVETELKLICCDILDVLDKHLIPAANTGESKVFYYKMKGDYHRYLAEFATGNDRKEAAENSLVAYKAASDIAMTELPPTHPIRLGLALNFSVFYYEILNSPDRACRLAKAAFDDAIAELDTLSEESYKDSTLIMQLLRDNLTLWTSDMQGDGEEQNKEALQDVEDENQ
Procedure: as §1, §2

[6] = target: T5, human 14-3-3 isoform θ (Homo sapiens, UniProt P27348); experiment: as above; conditions: fluorescein-labeled peptide 1 nM
T5 construct: MBP (cleaved yes); made in house; host or cells: E. coli BL21DE3
Procedure: as §1, §2

[7] = target: T6, human 14-3-3 isoform σ (recombinant, MBP tag removed) (human, UniProt P31947 1-248); experiment: fluorescence polarisation; direct binding; dilution series of 14-3-3 isoform (at least 5 μM down to picomolar) mixed with 1 nM fluorescein-labelled peptide; 20 mM MOPS pH 7, 150 mM NaCl, 0.005% CHAPS; 384-well plates; conditions: both partners purified
T6 construct: 14-3-3 sigma, human; Expressed from pMAL2CX plasmids; also called 14-3-3σ; source: E. coli BL21DE3, purified (maltose-agarose, Factor Xa, anion exchange)
T6 sequence (looked up): T2 sequence (P31947 1-248)

[8] = target: T7, human 14-3-3 isoform β (recombinant, MBP tag removed) (human, UniProt P31946 1-246); experiment: as above; conditions: both partners purified
T7 construct: 14-3-3 beta, human; Expressed from pMAL2CX plasmids; also called 14-3-3β; source: E. coli BL21DE3, purified (maltose-agarose, Factor Xa, anion exchange)
T7 sequence (looked up): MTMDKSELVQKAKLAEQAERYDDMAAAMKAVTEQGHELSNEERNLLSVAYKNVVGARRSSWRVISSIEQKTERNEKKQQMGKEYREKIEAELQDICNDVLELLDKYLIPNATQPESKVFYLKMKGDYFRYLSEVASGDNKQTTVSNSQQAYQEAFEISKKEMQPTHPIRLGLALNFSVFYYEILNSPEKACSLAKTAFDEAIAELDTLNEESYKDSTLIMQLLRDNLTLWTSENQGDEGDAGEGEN

[9] = target: T8, human 14-3-3 isoform ζ (recombinant, MBP tag removed) (human, UniProt P63104 1-245); experiment: as above; conditions: both partners purified
T8 construct: 14-3-3 zeta, human; Expressed from pMAL2CX plasmids; also called 14-3-3ζ; source: E. coli BL21DE3, purified (maltose-agarose, Factor Xa, anion exchange)
T8 sequence (looked up): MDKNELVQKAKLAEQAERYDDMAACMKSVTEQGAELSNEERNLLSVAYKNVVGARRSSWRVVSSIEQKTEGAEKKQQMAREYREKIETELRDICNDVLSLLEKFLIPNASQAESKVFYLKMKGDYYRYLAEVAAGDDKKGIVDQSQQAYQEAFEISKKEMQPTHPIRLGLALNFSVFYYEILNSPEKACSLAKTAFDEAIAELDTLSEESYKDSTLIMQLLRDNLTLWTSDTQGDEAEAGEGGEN

[10] = target: T9, human 14-3-3 isoform θ (recombinant, MBP tag removed) (human, UniProt P27348 1-245); experiment: as above; conditions: both partners purified
T9 construct: 14-3-3 theta, human; Expressed from pMAL2CX plasmids; also called 14-3-3θ; source: E. coli BL21DE3, purified (maltose-agarose, Factor Xa, anion exchange)
T9 sequence (looked up): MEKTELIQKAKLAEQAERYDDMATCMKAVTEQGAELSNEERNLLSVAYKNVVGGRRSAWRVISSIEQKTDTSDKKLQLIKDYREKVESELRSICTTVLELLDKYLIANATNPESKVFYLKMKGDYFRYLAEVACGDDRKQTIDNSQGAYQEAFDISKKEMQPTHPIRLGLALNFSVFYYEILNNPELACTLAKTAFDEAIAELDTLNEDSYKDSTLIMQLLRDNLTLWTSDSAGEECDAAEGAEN

[11] = target: T10, human 14-3-3 isoform η (recombinant, MBP tag removed) (human, UniProt Q04917 1-246); experiment: as above; conditions: both partners purified
T10 construct: 14-3-3 eta, human; Expressed from pMAL2CX plasmids; also called 14-3-3η; source: E. coli BL21DE3, purified (maltose-agarose, Factor Xa, anion exchange)
T10 sequence (looked up): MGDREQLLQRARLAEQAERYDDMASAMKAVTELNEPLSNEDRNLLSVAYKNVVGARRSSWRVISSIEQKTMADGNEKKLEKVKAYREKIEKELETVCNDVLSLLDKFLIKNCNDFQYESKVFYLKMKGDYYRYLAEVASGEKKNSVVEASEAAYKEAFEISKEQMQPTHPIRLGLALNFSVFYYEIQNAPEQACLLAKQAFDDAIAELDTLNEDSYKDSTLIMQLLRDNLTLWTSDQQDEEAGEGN

[12] = target: T11, human 14-3-3 isoform ε (recombinant, MBP tag removed) (human, UniProt P62258 1-255); experiment: as above; conditions: both partners purified
T11 construct: 14-3-3 epsilon, human; Expressed from pMAL2CX plasmids; also called 14-3-3ε; source: E. coli BL21DE3, purified (maltose-agarose, Factor Xa, anion exchange)
T11 sequence (looked up): T4 sequence (P62258 1-255)

- Binding to 14-3-3 isoform σ, in words [3]: No binding
- Binding to 14-3-3 isoform ϵ, in words [5]: No binding
- Binding to 14-3-3 isoform θ, in words [6]: weakest binding
Molecule: SFLVKKKSNpSISVGEFYRD [pS910, fluorescein-labeled LRRK2-derived phosphopeptide covering pS910]
- Binding to the human 14-3-3 isoforms, in words [1]: micromolar affinities for the 14-3-3 isoforms except σ and ϵ; also recorded: low affinity
- Binding to 14-3-3γ, in words [2]: micromolar binding affinity; also recorded: highest affinities, yet in a micromolar range
- Binding to 14-3-3 isoform η, in words [4]: highest affinities, yet in a micromolar range

- Kd [7]: 350 nM
- Kd [8]: 29.5 nM
- Kd [9]: 23.9 nM
- Kd [10]: 73.1 nM
- Kd [11]: 13.3 nM
- Kd [12]: 48.5 nM
B1: Q930R/pS935 (peptide)
peptide: fluorescein-RCSPNLRRHSN[pS]LGPIFDH
notes: LRRK2-derived peptide with the possible pathogenic mutation Q930R, phosphorylated at S935; source: synthetic peptide (Peps4LS GmbH)

- Kd [7]: 60.6 nM
- Kd [8]: 21.1 nM
- Kd [9]: 4.8 nM
- Kd [10]: 9.5 nM
- Kd [11]: 4.8 nM
- Kd [12]: 12.4 nM
B2: pS910/pS935 (peptide)
peptide: fluorescein-KKSN[pS]ISVGEFYRDAVLQRCSPNLQRHSN[pS]LGPIF
notes: LRRK2-derived 35-mer covering S910 and S935, phosphorylated at both; source: synthetic peptide (Peps4LS GmbH)
